Experimental data from patent US20220380459A1 (DRAGONFLY THERAPEUTICS, published 2022).
Residue numbers refer to the chain shown, from its start.

B1: C26.I07 (bispecific antibody)
NKG2D-binding VH: QVQLQQWGAGLLKPSETLSLTCAVYGGSFSGYYWSWIRQPPGKGLEWIGEIDHSGSTNYNPSLKSRVTISVDTSKNQFSLKLSSVTAADTAVYYCARARGPWSFDPWGQGTLVTVSS
NKG2D-binding VL: DIQMTQSPSTLSASVGDRVTITCRASQSISSWLAWYQQKPGKAPKLLIYKASSLESGVPSRFSGSGSGTEFTLTISSLQPDDFATYYCQQYGSFPITFGGGTKVEIK
CD33-binding VH: EVQLVESGGGLVQPGGSLRLSCAASGFTFGSYWMSWVRQAPGKGLEWVATIKQDGSEKSYVDSVKGRFTISRDNAKNSLYLQMNSLRAEDTAVYYCARPLNAGELDVWGQGTMVTVSS
CD33-binding VL: DIQMTQSPSTLSASVGDRVTITCRASQSISSWLAWYQQKPGKAPKLLIYEASSLESGVPSRFSGSGSGTEFTLTISSLQPDDFATYYCQQSQSYPPITFGGGTKVEIK
B2: C26.I35 (bispecific antibody)
NKG2D-binding VH: B1 NKG2D-binding VH
NKG2D-binding VL: B1 NKG2D-binding VL
CD33-binding VH: QLQLQESGPGLVKPSETLSLTCTVSGGSISSTDYYWGWIRQPPGKGLEWIGSIGYSGTYYNPSLKSRVTISVDTSKNQFSLKLSSVTAADTAVYYCARETAHDVHGMDVWGQGTTVTVSS
CD33-binding VL: EIVLTQSPATLSLSPGERATLSCRASHSVYSYLAWYQQKPGQAPRLLIYDASNRATGIPARFSGSGSGTDFTLTISSLEPEDFAVYYCQQYDNLPTFGGGTKVEIK
B3: A44.G59 (bispecific antibody)
NKG2D-binding VH: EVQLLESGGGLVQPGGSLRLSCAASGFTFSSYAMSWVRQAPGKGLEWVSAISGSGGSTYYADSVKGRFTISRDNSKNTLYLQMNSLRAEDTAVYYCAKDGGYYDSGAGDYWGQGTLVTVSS
NKG2D-binding VL: DIQMTQSPSSVSASVGDRVTITCRASQGIDSWLAWYQQKPGKAPKLLIYAASSLQSGVPSRFSGSGSGTDFTLTISSLQPEDFATYYCQQGVSYPRTFGGGTKVEIK
CD33-binding VH: EVQLVESGGGLVQPGGSLRLSCAASGFTFSSYGMSWVRQAPGKGLEWVANIKQDGSEKYYVDSVKGRFTISRDNAKNSLYLQMNSLRAEDTAVYYCAREGGPYYDSSGYFVYYGMDVWGQGTTVTVSS
CD33-binding VL: DIQMTQSPSTLSASVGDRVTITCRASQSISSWLAWYQQKPGKAPKLLIYDASSLESGVPSRFSGSGSGTEFTLTISSLQPDDFATYYCQQYESFPTFGGGTKVEIK
B4: A44.I07 (bispecific antibody)
NKG2D-binding VH: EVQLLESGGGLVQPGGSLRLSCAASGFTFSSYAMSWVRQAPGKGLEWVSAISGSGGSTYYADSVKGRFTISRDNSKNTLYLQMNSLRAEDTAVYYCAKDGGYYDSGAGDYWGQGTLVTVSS
NKG2D-binding VL: B3 NKG2D-binding VL
CD33-binding VH: B1 CD33-binding VH
CD33-binding VL: B1 CD33-binding VL
B5: A49.I35 (bispecific antibody)
NKG2D-binding VH: EVQLVESGGGLVKPGGSLRLSCAASGFTFSSYSMNWVRQAPGKGLEWVSSISSSSSYIYYADSVKGRFTISRDNAKNSLYLQMNSLRAEDTAVYYCARGAPMGAAAGWFDPWGQGTLVTVSS
NKG2D-binding VL: B3 NKG2D-binding VL with D30S, Y94F
CD33-binding VH: B2 CD33-binding VH
CD33-binding VL: B2 CD33-binding VL
B6: A44.I35 (bispecific antibody)
NKG2D-binding VH: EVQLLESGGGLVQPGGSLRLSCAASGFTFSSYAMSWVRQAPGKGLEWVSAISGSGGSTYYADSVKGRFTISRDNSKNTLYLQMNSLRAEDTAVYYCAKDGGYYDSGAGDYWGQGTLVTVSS
NKG2D-binding VL: B3 NKG2D-binding VL
CD33-binding VH: B2 CD33-binding VH
CD33-binding VL: B2 CD33-binding VL
B7: A49.H76 (bispecific antibody)
NKG2D-binding VH: B5 NKG2D-binding VH
NKG2D-binding VL: B3 NKG2D-binding VL with D30S, Y94F
CD33-binding VH: EVQLLESGGGLVQPGGSLRLSCAASGFTFSKYTMSWVRQAPGKGLEWVSAIVGSGESTYFADSVKGRFTISRDNSKNTLYLQMNSLRAEDTAVYYCAREGGPYYDSSGYFVYYGMDVWGQGTTVTVSS
CD33-binding VL: B3 CD33-binding VL with D50K, E92D, S93D, F94L
B8: A40.G59 (bispecific antibody)
NKG2D-binding VH: B1 NKG2D-binding VH
NKG2D-binding VL: B3 CD33-binding VL with S30G, D50K, E92H, P95Y
CD33-binding VH: B3 CD33-binding VH
CD33-binding VL: B3 CD33-binding VL
B9: C26.G59 (bispecific antibody)
NKG2D-binding VH: B1 NKG2D-binding VH
NKG2D-binding VL: B1 NKG2D-binding VL
CD33-binding VH: B3 CD33-binding VH
CD33-binding VL: B3 CD33-binding VL
B10: A44.H76 (bispecific antibody)
NKG2D-binding VH: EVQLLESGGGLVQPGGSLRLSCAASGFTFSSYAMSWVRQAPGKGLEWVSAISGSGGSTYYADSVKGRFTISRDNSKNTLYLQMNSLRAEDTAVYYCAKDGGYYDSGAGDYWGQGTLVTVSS
NKG2D-binding VL: B3 NKG2D-binding VL
CD33-binding VH: B7 CD33-binding VH
CD33-binding VL: B3 CD33-binding VL with D50K, E92D, S93D, F94L
B11: A49.G59 (bispecific antibody)
NKG2D-binding VH: B5 NKG2D-binding VH
NKG2D-binding VL: B3 NKG2D-binding VL with D30S, Y94F
CD33-binding VH: B3 CD33-binding VH
CD33-binding VL: B3 CD33-binding VL
B12: C26.H76 (bispecific antibody)
NKG2D-binding VH: B1 NKG2D-binding VH
NKG2D-binding VL: B1 NKG2D-binding VL
CD33-binding VH: B7 CD33-binding VH
CD33-binding VL: B3 CD33-binding VL with D50K, E92D, S93D, F94L
B13: A40.H76 (bispecific antibody)
NKG2D-binding VH: B1 NKG2D-binding VH
NKG2D-binding VL: B3 CD33-binding VL with S30G, D50K, E92H, P95Y
CD33-binding VH: B7 CD33-binding VH
CD33-binding VL: B3 CD33-binding VL with D50K, E92D, S93D, F94L
B14: A49.I07 (bispecific antibody)
NKG2D-binding VH: B5 NKG2D-binding VH
NKG2D-binding VL: B3 NKG2D-binding VL with D30S, Y94F
CD33-binding VH: B1 CD33-binding VH
CD33-binding VL: B1 CD33-binding VL
B15: F47.G59 (bispecific antibody)
NKG2D-binding VH: B1 NKG2D-binding VH
NKG2D-binding VL: B3 CD33-binding VL with D50K, E92D, S93T, P95I
CD33-binding VH: B3 CD33-binding VH
CD33-binding VL: B3 CD33-binding VL
B16: F47.H76 (bispecific antibody)
NKG2D-binding VH: B1 NKG2D-binding VH
NKG2D-binding VL: B3 CD33-binding VL with D50K, E92D, S93T, P95I
CD33-binding VH: B7 CD33-binding VH
CD33-binding VL: B3 CD33-binding VL with D50K, E92D, S93D, F94L

Each binder was assayed against T1, human CD33 expressed on cells (human, UniProt P20138 18-364) (assay: flow cytometry on Molm-13 cells, fluorophore-conjugated anti-human IgG secondary antibody, MFI as fold over background (FOB)).
T1 construct: endogenous CD33 of human AML cell lines and blood monocytes; also called cell-expressed CD33 (Molm-13, Mv4-11, monocytes)
T1 sequence (P20138 18-364): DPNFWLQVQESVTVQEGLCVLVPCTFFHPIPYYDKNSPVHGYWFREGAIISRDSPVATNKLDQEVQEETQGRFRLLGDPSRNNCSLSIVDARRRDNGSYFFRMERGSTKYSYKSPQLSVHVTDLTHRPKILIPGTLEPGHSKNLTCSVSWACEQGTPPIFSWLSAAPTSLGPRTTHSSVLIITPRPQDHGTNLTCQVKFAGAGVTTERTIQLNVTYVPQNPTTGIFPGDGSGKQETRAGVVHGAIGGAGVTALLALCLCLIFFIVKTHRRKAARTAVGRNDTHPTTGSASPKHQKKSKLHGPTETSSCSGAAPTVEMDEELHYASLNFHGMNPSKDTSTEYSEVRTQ
Description: Binding of the TriNKET was detected using a fluorophore conjugated anti-human IgG secondary antibody. Cells were analyzed by flow cytometry, binding MFI to cell expressed CD33 was normalized to secondary antibody controls to obtain fold over background values.

Row | binding result | Binder
1 | binds | B1
2 | binds | B2
3 | binds | B3
4 | binds | B4
5 | binds | B5
6 | binds | B6
7 | binds | B7
8 | binds | B8
9 | binds | B9
10 | binds | B10
11 | binds | B11
12 | binds | B12
13 | binds | B13
14 | binds | B14
15 | binds | B15
16 | binds | B16
